T1: ECD of DAF-4 (Caenorhabditis elegans, UniProt P50488)
T1 construct: highly purified ECD of DAF-4 as type II receptor
T1 sequence (P50488 48-253 limits assumed): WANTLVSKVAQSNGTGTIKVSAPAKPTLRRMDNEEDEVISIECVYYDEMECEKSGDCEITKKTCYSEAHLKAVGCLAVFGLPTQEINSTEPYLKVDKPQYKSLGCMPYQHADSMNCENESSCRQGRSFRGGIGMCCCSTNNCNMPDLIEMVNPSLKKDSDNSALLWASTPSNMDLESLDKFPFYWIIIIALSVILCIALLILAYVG

T2: DAF-4 ECD (Caenorhabditis elegans, UniProt P50488)
T2 construct: highly purified ECD of DAF-4 as type II receptor
T2 sequence (P50488 48-253 limits assumed): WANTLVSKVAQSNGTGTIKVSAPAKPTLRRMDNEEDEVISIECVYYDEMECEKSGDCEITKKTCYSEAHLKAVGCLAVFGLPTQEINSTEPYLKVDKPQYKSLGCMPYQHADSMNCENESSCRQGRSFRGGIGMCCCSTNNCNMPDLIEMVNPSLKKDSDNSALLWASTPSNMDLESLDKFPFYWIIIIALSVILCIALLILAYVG


What was measured:
ECD of DAF-4 = target: T1, ECD of DAF-4; experiment: Type II receptor-based rapid solid phase assay; assay type: binding; details: for inhibition of 125I-labeled OP-1 binding to the ECD of DAF-4: excess unlabeled competitor, FIG. 20
Method: iii. Type H Receptor-based rapid solid phase assay: OP-1 binding activity, and that of various synthetic peptides, may be determined by a rapid solid-phase assay using 125I-labeled OP-1 as ligand and highly purified ECD of DAF-4 as type II receptor. In a typical assay, ˜1 μg of ECD of DAF-4 receptor (R) is dissolved in 20 μl of 50 mM PBSA, pH 7.4 and immobilized on PVDF membranes (Immobilon-P) by using a slot-blot apparatus (VacuSlot-VS). A similarly immobilized polyclonal anti-OP-1 antibody (diluted Ab) has served as positive control, while bovine serum albumin (globulin free) and unrelated receptor ECD have served as negative controls in this assay. The receptor-containing membranes are incubated in 50 mM HEPES buffer, pH 7.4 containing 3% bovine serum albumin (BSA) for 14 h, in cold (4° C.), to block excess protein binding sites on the membrane. The blocking buffer is then replaced with 50 mM HEPES, pH 7.4 containing 0.5% BSA, 10 mM MgCl2 and 1 mM CaCl2, and the receptor-containing membranes are further incubated with ^125I-labeled OP-1 (˜400,000 cpm/ml) in the presence or absence of excess unlabeled OP-1 or test peptide for 18 h, with slow shaking at room temperature. Finally, the membranes are washed four times with 50 mM HEPES buffer, pH 7.4 containing 5 mM MgCl2 and 1 mM CaCl2, air dried and ^125I kept for autoradiography overnight.
Initial binding experiments were carried out to examine the role of the finger 2 region (Leu109-Arg129) of OP-1 in the interaction of OP-1 with the type II receptor. Incubation of DAF4 with radioiodinated OP-1 was done in the presence (a) and absence (b) of synthetic peptide (F2-3) corresponding to the indicated finger 2 region of OP-1. In parallel, immobilized receptor was incubated with radioiodinated OP-1 in the presence of unlabeled OP-1 which served as a positive control. […] These initial results thus identify that the finger 2 region (Leu109-Arg129) of OP-1 is likely a contact region in the interaction of OP-1 with the type II receptor.

DAF-4 ECD = target: T2, DAF-4 ECD; experiment: Type II receptor-based ligand blot, DAF-4 ECD; assay type: binding; details: FIG. 22
Method: (§1) iv. Type II receptor-based ligand-blot technique: A ligand blot method can be used to characterize OP-1 binding properties of highly purified DAF4 ECD and ROS cell receptor. Peptides are analyzed by this method to determine their ability to interact with type II receptor, based on their ability to inhibit ^125I-labeled OP-1 binding to the receptor. In a typical experiment, receptor-enriched ROS cell plasma membrane fraction or purified DAF-4 ECD is treated with SDS (final concentration 1.6%, w/v) in the presence of 17% glycerol on ice, as is known in the art, and subjected to SDS-PAGE under non-reducing conditions and without prior heating of the samples, according to the procedure of Laemmli. Receptor samples are electrophoressed at 35 mA and 4° C., in gradient (5-8% or 5-10%, w/v) acrylamide separating gels. Pre-stained markers of known MW, are used as standards. After SDS-PAGE, the resolved proteins from acrylamide gels are transblotted onto PVDF membranes (Immobilon-P transfer membranes) using an Pharmacia-LKB 2005 Transphor Unit, at constant current (0.2 A) and 4° C., for 16 h. Ligand blotting is carried out as follows. […]

ROS cell receptor = experiment: Type II receptor-based ligand blot, ROS cell receptor; assay type: binding, rat; details: FIG. 21
Method: as §1

Molecule | binding to ECD of DAF-4 (ECD of DAF-4; FIG. 20 legend) | inhibition of 125I-labeled OP-1 binding to the ECD of DAF-4 (ECD of DAF-4) | binding of 125I-labeled OP-1 to DAF-4 ECD (DAF-4 ECD) | binding of 125I-labeled OP-1 to ROS cell receptor (ROS cell receptor)
F2-3: SEQ ID No. 19; 16 residues, finger 2 tip 11-residue loop with 5-residue C-terminal extension (CYFDDSSNVICKKYRS; listed as Homo sapiens) | binds to ECD of DAF-4 | 75% |  | 
OP-1: osteogenic protein-1, a tissue morphogenic protein of the TGF-β superfamily; mature human OP-1 is SEQ ID No. 4 (protein, listed as Homo sapiens) CKKHELYVSFRDLGWQDWIIAPEGYAAYYCEGECAFPLNSYMNATNHAIVQTLVHFINPETVPKPCCAPTQLNAISVLYFDDSSNVILKKYRNMVVRACGCH |  | 78% | OP-1 binding to two closely migrated receptor components | specifically binds

Source: patent US20030185792A1, “Morphogen analogs of bone morphogenic proteins” (Curis, Inc., priority 1996, published 2003)
